Target: S275F RSV F protein (Synagis-resistant RSV antigen) (respiratory syncytial virus, UniProt P03420 26-524)
Assay: ratio of the ELISA Kd values, reference 11L

B1: RSV Protein-1A12 Ab (antibody, V domains shown)
VH: EVQLVESGGGLVQPGGSLRLSCAASGFTFTSSWMSWVRQAPGKGLEWVSEIDGYNGSTYYADSVKGRFTISRDNSKNTLYLQMNSLRAEDTAVYYCARTVPWWGMDYWGQGTLVTVSS
VL: DIQMTQSPSSLSASVGDRVTITCRASQNISNYLAWYQQKPGKAPKLLIYLASSLESGVPSRFSGSGSGTDFTLTISSLQPEDFATYYCQQANSPPRTFGQGTKVEIK
notes: The ELISA detected the antibody with anti-human IgG Fc-HRP, so a human Fc is implied; also called 항체 1A12; 1A12 항체
How did the “fold higher affinity for S275F than for 11L” value turn out when B1 was run?
The value was ~15 배 (fold).

— patent KR20230066722A (dated 2023)
